Assay: yeast display, Sf9 membrane polyspecificity reagent, FACS + sequencing; frameworks hold sequencing errors
How it was run: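 Synthetic nanobody libraries on Saccharomyces cerevisiae BJ5465 were galactose-induced for 36–48 hours, stained 1 hour at 4 °C with 10% biotinylated, detergent-solubilized Sf9 membrane reagent and enriched on streptavidin microbeads. FACS then separated cells into low and high (top ~1%) gates by anti-HA (expression) and streptavidin (reagent binding) fluorescence. Genes were colony-PCR amplified, MiSeq 2 × 250 sequenced and CDR-length filtered. A clone's polyreactivity label is that of its gate of origin.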

Sequence: QVQLVESGGGLVQAGGSLRLSCAASGFTFRAYAMGWYRQAPGKERELVATITRSGGSTFYADSVKGRFTISRDNAKNTVYLQMNSLKPEDTAVYYCAAVYRFAFRYAWYKYDYWGQGTQVTVSS
- polyreactivity (PSR sort gate): high polyreactivity

Sequence: QVQLVESGGGLVQAGGSLRLSCAASGITIRRYAMGWYRQAPGKERELVAAITTGGGGTYYADSVKGRFTISRDNAKNTVYLQMNSLKPEDTAVYYCAATYWRTYPSYYWGQGTQVTVSS
- polyreactivity (PSR sort gate): high polyreactivity

Sequence: QVQLVESGGGLVQAGGSLRLSCAASGLTFEYYDMGWYRQAPGKERELVAAITGSDDSTYADSVKGRFTISRDNAKNTVYLQMNSLKPEDTAVYYCAASYRAWSGNYWGQGTQVTVSS
- polyreactivity (PSR sort gate): high polyreactivity

Sequence: QVQLVESGGGLVQAGGSLRLSCAASGRTFRGYVMGWYRQAPGKERELVASISYSGGSTYYADSVKGRFTISRDNAKNTVYLQMNSLKPEDTAVYYCAARKGYDQYRWRYSQNNYWGQGTQVTVSS
- polyreactivity (PSR sort gate): high polyreactivity

Sequence: QVQLVESGGGLVQAGGSLRLICAASGYIFDYYAMGWYRQAPGKERELVAAISWSGGSTYYADSVKGRFTISRDNEKNTVSLQMNSLKPEDTAVYYCAAEGTYYGSDYWGQGTQVTVSS
- polyreactivity (PSR sort gate): high polyreactivity

Sequence: QVQLVESGGGLVQAGGSLRLSCAASGSIFDVYTRGWYRQAPGKQRELVAAINTGGGSTYYADSEKGRFTISRDIAKNTVYLQMNSLKPEDTAVYYCAASVYHYGPLYYWGQVTQVTVSS
- polyreactivity (PSR sort gate): low polyreactivity

Sequence: QVQLVDSGGGLVQAGGSLRLSCAASGSIFGYYAMGWYRQAPGKERELVAAINSGSSTNYADSVKGRFTISRDNAKNTVYLQMNSLKPEDTAVYYCNKDPWYVFHPRGLFLFDYWGQGTQVTVSS
- polyreactivity (PSR sort gate): low polyreactivity

Sequence: QVQLVESGGGLVQAGGSLRLICAACGFTLTGYTMGWYRQAPGKERELVAAITSRGGTTYYADSVKGRFTISRDNAKYTVYLQMNSLKPEDTAVYYCNVVYPYLEYDYWGQGTQVTVSS
- polyreactivity (PSR sort gate): high polyreactivity

Sequence: QVQLVESGGGLDQAGGSLRLSCAASGRIFCQYAMGWYRQAPGKERELVAAMSRSGGSTYYAHSVKGRFTISRDNAKNTVYLQMTSLKPEDTAVYYCAARKASGDPGSAGRPEYYYWGQGNQVTVSS
- polyreactivity (PSR sort gate): high polyreactivity

Sequence: KVQLVESAVGLVQAGGSLRLSCAASGPTFWRNAMGWYRQAPGKERELVAAISRGGSTNYADSVKGRFTISRDNAKNTVYLLMNSLKPEDTAVYYCAARYYYRYNYWGQGTQVTVSS
- polyreactivity (PSR sort gate): high polyreactivity

Sequence: QVQLVESGGGLVQAGGSLRLTCAASGITFTQNAMGWYRQAPGKERELVAAISRSGTITYYADSVKGRFTISRDHAKNTVYLQMNSLKPEDTAVYYCNKLRPQRSWEYDYWGQGTQVTVSS
- polyreactivity (PSR sort gate): high polyreactivity

Sequence: QVQLVESGGGLVQAGGSLRLSCAASGRIFPDNAMGWYRQAHGKERELVAVITYSGGSTYYADSVKGRFTISRDNAKNTVYLQMNSLKPEDTAVYYCAARDYYIWFAEVDYWGQGTQVTVSS
- polyreactivity (PSR sort gate): low polyreactivity

Sequence: QVHLVESGGGLVQAGGSLRLSCAASGFIFYSNSMGWYRPAPGKERELVAAISSGGGSTRYADSVKGRFTISRDNAKNTVYLQMNSLKPEDTAVYYCASRDGYTIFRSTRYYYWGEGTQVTVSS
- polyreactivity (PSR sort gate): high polyreactivity

Sequence: QVQLLESGGGLVQAGGSLRLSCAHSGLIIWANAMGWYRQAPGKESEMVAAISGSGGRTYYADSVKGRFSISRDNAKNTVYLEMNSLIPEDTAVYFCAAKVSAWKKKSEMNYWGQGTQVTVSS
- polyreactivity (PSR sort gate): high polyreactivity

Sequence: QVQLVESGGGLVQAGGSLRLSCAASGFIFSRYAKGWSRPAPGKERELVAAITRGGGDTYYADSVKGRFTISRDNAKNTVYLQMNSLKPEDTAVYYCNARYRRYTTRFGAMDYWGQGTQVTVSS
- polyreactivity (PSR sort gate): high polyreactivity

Sequence: QVQLVESAGGLVQAGGRLRVSCAASGFTFTLYAMGWYRQEPGKERELVAAINRSGGRTYYADSVKGRFTISRDNAKNTVYLQKNSLKPEDTAVYYCNKYPWPNYYDGEYDYWGQGTQVTVSS
- polyreactivity (PSR sort gate): high polyreactivity

Sequence: QVQLVESGGGLVQAGGSLRLSCAASGFIFSSNAMGWYRQAPGKEREFVAAISFRGGTTYYADSVKGRFTISRDNAKNTVYLQMKSLKPEDTAVYYCNAVRWRSGRWWWYDYWGQGTQVTVSS
- polyreactivity (PSR sort gate): low polyreactivity

Sequence: QVQLVESGGGVFQAGGTLSLSCAASGITFYPNDMGWYRQATGKETELVAAITTNDGDTYYADSVKGRFTISRDNAKNTVYLQMNSLKPEYTAVYYCAADSGSTSEYEYWGQGTQVTVSS
- polyreactivity (PSR sort gate): low polyreactivity

Sequence: QVQLVESGGGLVQAGGSLRLSCDASARTFWRNAMGWYRQAPGKERELVAAISYSGGSTYYADSVKGRFTISRDYAKNTVYLQMNSLKPEDTAVYYCAVVYSTSSLYSGYYWGQGTQVTVSS
- polyreactivity (PSR sort gate): low polyreactivity

Sequence: QVQLVESGGGLVQAGGSLRLSCAASGSIFYANAMGWYRQAPGKERELVAAISRSGGRTYYADSVKGRFTISRDNAKNTVYLQMNSLKPEDTAVYYCNAVYVSYTYQQTRSGGYDYWGQGTQVTVSS
- polyreactivity (PSR sort gate): high polyreactivity

Sequence: QVQLVESGGGLVQAGGSLRLICAASVSIFTKYAMGWYRQAPGKERELVADITRSGGSTYYADSVKGRFTISRDNAKNTVYLQMNSLKPEDTAVYYCAVDPVRYPYSYDYWGQGTQVTVSS
- polyreactivity (PSR sort gate): high polyreactivity

Sequence: QVQLVESGGGLVQAGGSLRLSCAASGRTFGRYAMGWSRQAPGKERELVATITSGGSTNYADSVKGRFTISRDNAKNTVYLQMNSLKPEDTAVYYCAAEFSPSRWAYSEGALRYNYWGQGTQVTVSS
- polyreactivity (PSR sort gate): low polyreactivity

Sequence: QVQLVESGGGLVQAGGSLRLTCAASGSIFYLYAMGWYRQAPGKETELVAAISRTGSTYADSVKGRFTISRDNAKKTVYLQMNSLKPEDTAVYYCAAEYRYYWYGTMNYWGQGTQVTVSS
- polyreactivity (PSR sort gate): low polyreactivity

Sequence: QVQLVESGGGLVQAGGSLRLSCAASGSIFRSYAMGWYRQAPGKERELVAAITFSGGRTYYADSVKGRFTISRDNAKNTVYLQMNSLKPEDTGVYYCNARHRNLAEYDYWGQGTQVTVSS
- polyreactivity (PSR sort gate): low polyreactivity

Sequence: QVQLVESGGGLVQAGGSLRLSCAASGRIFRYYVMGWYRQAPGKERELVASITRVGRTNYADSVKGRFTISRDNAKNTVYLQMNSLKPEDTAFYYCAADVWWSTYRVTDDYWGQGTQVTVSS
- polyreactivity (PSR sort gate): high polyreactivity

Sequence: QVQLVESGGGLVQAGGSLRLSCAASGSIFYLYAMGWYRQAPGKERELVASISSDGSTNYADSVKGRFTISRDNAKNTVYLQMNSLKPEDTAVYYCAADEGTGQASLSSNLYDYWGQGTQVTVSS
- polyreactivity (PSR sort gate): low polyreactivity

Sequence: QVQLEESGGGLVQAGGSLRLSCAASGSIFWIYALGWYRQAPGKERELVATITRRGGSTYYADSVKGRFTISRDNAKNTVYLQMNSLKPEDTAVYYCATEPGYTYLTSYKYDYWGQGTQVTVSS
- polyreactivity (PSR sort gate): low polyreactivity

Sequence: QVQLVESGGCLVQAGGSLRLSCAPSGYTFGRNAMGWYRQAPGKEWELVATISQRGGSTYYADSVKGRFTISRDNAKNTVYLQLNSLKPEDTAVYYCSAGPIYRYRRYYYWGQGTQVTVSS
- polyreactivity (PSR sort gate): high polyreactivity

Sequence: QVQLVESGGGLVQAGGSLRLSCAASGYIFHDNAMGWYRQAPGKERELVAGITTGGSTYYADSVKGRFTISRDNAKYTVYLQMNSLKPEDTAVYYCAAKVWSRSFYKYYYWGQGTQVTVSS
- polyreactivity (PSR sort gate): high polyreactivity

Sequence: QVQLVESGGGLVQAGGSLRLSCAASGRIFPRYAMGWYRQAPGKERQLVAAITSGDSTHYADSVKGRFTISRDNAKNTVYLQMNSLKPEDTAVYYCAAKYPRYGRHAYGYWGQGTQVTVSS
- polyreactivity (PSR sort gate): high polyreactivity

Sequence: QVQLVESGGGLVQSGGSLRLICAASGRTSLNYAMGWYRQAPGKEMELVAAITRGGGGTYYADSVKGRFTISRDNAKNTVYFQMNSLKPEDTAVYYCAREHKRGGYGYWGQGTQVTVSS
- polyreactivity (PSR sort gate): high polyreactivity

Sequence: QVQLVESVGGLVQAGGSLRLSCAASGFIFTLYTMGWYRHAPGKERELVADIDKNGSTYYADSVKGRFTISRDNAKITVYLRMYSLKPEDTAFYYCAADDRYRGNREDYWGQGTQVTVSS
- polyreactivity (PSR sort gate): low polyreactivity

Sequence: QVQLVESGGGLVQAGGSLRLSCAASGSTFYFNAMGWYRQAPGKERELVAGIRYSGSSTYYADSVKGRFTISRDNAKNTVYLQMNSLKPEYTAVYYCAAERWWYTVRGYGYWGQGTQVTVSS
- polyreactivity (PSR sort gate): high polyreactivity

Sequence: QVQLVESGGGLVQAGGSLRLSCAASGFTFAPNAMGWYRQAPGKERELVAAISSASSTYYADSVKGRFTISRDNAKNTVYLQMNSLKPEETAVYYCAAKSSTKQRKYYWGQGTQVTVSS
- polyreactivity (PSR sort gate): high polyreactivity

Sequence: QVQLVESGGGLVHAGGSLRLSCAASGNTFIRYAIGWYRQARGTQRELVASITKRCGSTYYADSVKGRFTISRDNAKNTVYLQMNCLKPEDTAVYYCDRGPSGTPIGNTPYGDNRYNSWGEGTQVTVSS
- polyreactivity (PSR sort gate): low polyreactivity

Sequence: QVQLVESGGGLVQAGGSLRLSCAASGSTFRDNAMGWYRQAPGKERELVAAITVIDGTTYYADSVKGRFTISRDNAKNTVYLQMKSLKPEDTAVYYCAADTIWYEYYYWGQGTQVTVSS
- polyreactivity (PSR sort gate): low polyreactivity

Sequence: QVQLVESGGGLVQAGGSLRLSCAASGSIFVGYAMGWYRQAPGKERELVAAISQRGGITYYADSVKGRFTISRDNAKNTVYLQMNSLKPEDTAVYYCAAPRYLSYVRRYDYWGQGTQVTVSS
- polyreactivity (PSR sort gate): high polyreactivity

Sequence: QVQLVESGGGLVQAGGSLRLSCAASGRTFYSYAMGWYRQAPGKERELVAAISKRGTSTYYADSVKGRFTISRDNAKNTVYLQMNSLKPEDTAVYYCAAAYRGREVEYNCWGQGTQVTVSS
- polyreactivity (PSR sort gate): high polyreactivity

Sequence: QVQLVESGGGLVQAGGSLRLSCAASGRTFGYNTMGWYRQAPGKEREFVATIRTNGVSTYYADSVKGRFTISRDNAKNTVYLQMNSLKPEDTAVYYCNAPRTRKQKTIYVNAPGNYWGQGTQVTVSS
- polyreactivity (PSR sort gate): low polyreactivity

Sequence: QVQLVESGGGLVQAGGSLRLSCAASASIFNYYAMGRYRQAPGKERELVAAITSGGSTYYADSVKGRFSISRDNAKNTVYLQMNSVKPEDTAVYYCNKAFPYIYDYWGQGTQVTVSS
- polyreactivity (PSR sort gate): low polyreactivity

Sequence: QVHLVESDGGLVQAGGSLRLSCAASGIIFGYYVMGWYRQAPGKERELVASITSGGSTNYADSVKGRYTISRDNAKNTVYLQMNSLIPEYTAVYYCATDEPVGRYKHNYYWGQGTKVTVSS
- polyreactivity (PSR sort gate): low polyreactivity

Sequence: QVHLQESGVVLMQARGNLRMSCAASGYISTQYHMDWYRQAPGKERELVARIDYGAITNYADSVKGRFTIRRDNAKNTVYLQMTSLKPEDTAVYYCAVYSGDDYYHDYWGHGTQVTVSS
- polyreactivity (PSR sort gate): low polyreactivity

Sequence: QVHLVETGGGLVQAGGSLRISCAASGFTFSRYAMVWYRQAPGKERELVAAITSRGGSTYYADSVKGRFTISRDNAKNTVYLQMNSLKPEDTAFYYCAASGRNRKDGLYEYYYWGQGTQVTVSS
- polyreactivity (PSR sort gate): high polyreactivity
